Two molecules from patent US20040143098, “Method for improving plant tolerance to environmental stress” (published 2004) can be followed below.

In data set [1] the target is DBF1 (Zea mays). The experiment in a line: EMSA; same buffer. The settings on record: tags: pET28 tag (about 31 aa), expressed in E. coli; label: 32P. The text has this:
(§1) The following DNA oligonucleotides were used in electrophoretic mobility shift assays: DRE2 (SEQ ID NO 4 and 5), DRE2 m (SEQ ID NOs 6 and 7), DRE1 (SEQ ID NO 8 and 9), DRE1/ABRE1 (SEQ ID NOs 10 and 11), ABRE A (SEQ ID Nos12 and 13). The full-length oligonucleotides were purified by denaturing PAGE. Complementary oligonucleotides were annealed and purified in nondenaturing polyacrylamide gel. The double-stranded oligonucleotides were labelled with α³² P-dATP (3000 Ci/mmol, Amersham) by filling in with the Klenow fragment of the DNA polymerase I (Sambrook et al., 1989) and purified on a NAP5 column (Pharmacia), according to the manufacturers instructions. Unlabeled competitor DNA was filled in with nonradioactive nucleotides.
(§2) The radioactive probe was incubated with 400 ng of protein in 20 μl of 1× binding buffer (25 mM HEPES, pH 7.8, 75 mM KCl, 5 mM MgCl_{2,} 0.5 mM EDTA, 0.2 mM DTT and 10% glycerol) and 700 ng poly(dl-dC) for 20 min on ice before loading on a 1× Tris-borate-EDTA, 5% (30:0.8 acrylamide-bis) polyacrylamide gel. Electrophoresis was at 10 V/cm at 4° C. In competition assays the protein was incubated with non-radioactive oligonucleotides in 1× binding buffer, on ice for 10 min prior to adding the radioactive probe and continuing with incubation for 20 min more.
On the technique in general: Mobility shift assays separate free from complexed probe on a gel.

In data set [2] the target is DBF1 (Zea mays). The experiment in a line: EMSA; same buffer; ABRE reported as not bound. The settings on record: tags: pET28 tag (about 31 aa), expressed in E. coli; label: 32P.
Sequence of DBF1 (Zea mays) (chain, as listed by the source): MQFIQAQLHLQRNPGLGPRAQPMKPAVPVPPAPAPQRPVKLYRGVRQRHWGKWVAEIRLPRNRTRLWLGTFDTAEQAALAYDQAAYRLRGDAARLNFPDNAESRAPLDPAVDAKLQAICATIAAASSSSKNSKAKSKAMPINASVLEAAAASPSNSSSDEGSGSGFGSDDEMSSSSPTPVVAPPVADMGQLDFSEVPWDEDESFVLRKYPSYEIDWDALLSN
From the text: as §1, §2

B1: DRE1 (dsDNA)
DNA 1: GGGGTCGAGAAGAACCGAGACGAAGCGGTCGAG
DNA 2: GGGGCTCGACCGCTTCGTCTCGGTTCTTCTCGA
In the case of B1, the binding result with DBF1 [1] is “no binding”.

B2: ABRE A (dsDNA)
DNA 1: TGGAAGCTTCGCGCCACGTGGGCATGAGATCT
DNA 2: TGGAGATCTCATGCCCACGTGGCGCGAAGCTT
Turning to B2, the binding result in the data set with DBF1 [2] is “no binding”.
